Reference: the supplement of paper PMC12042874
± gives the uncertainty stated by the source.

Experiment: amyloid nucleation score (Sup35N fusion, yeast selection) (log enrichment); library NNK2; higher = more nucleation; inactive = no reads after selection
Outline: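 Nucleation score: DiMSum log enrichment of output over input reads, centred on the mode score of non-aggregating sequences. Only sequences with at least 100 input reads were kept. Reads came from Illumina sequencing of plasmid inserts before and after 7 days of growth at 30°C without adenine and uracil, in psi-negative yeast expressing Sup35N fused to peptides of 20 random codons after 24 hours of induction with 100 μM copper sulfate.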

| Substance | amyloid nucleation score |
| --- | --- |
| PSFFCKWKSLYPTVNVCVVN | -0.073 ± 0.49 |
| PSITPLACHHTRCNW | -0.881 ± 0.28 |
| PSLLFFSCV | -0.366 ± 0.56 |
| PSSDRMSKCVFRVRNCQEAL | 0.157 ± 0.55 |
| PTMYWFPPETATSPPYGPPG | 3.54 ± 0.1 |
| PTRDKVATEGHGNGLIYNRF | 0.306 ± 0.65 |
| PVFVLNVLLVILDPFLGLSN | -0.237 ± 0.34 |
| PVGLY | -0.308 ± 0.42 |
| PVPNYCSEII | -1.1 ± 1 |
| PVYPAAYWIVSDGGCNVSWE | -0.789 ± 0.37 |
| PWCTWSFVADLENSYRRWVR | 2.57 ± 0.12 |
| PYFCDIMNGTCRYSLYGFSM | 0.37 ± 0.51 |
| PYLPLRYFCWGSK | -0.249 ± 0.79 |
| QAFPDLTVVRACYMHLL | 0.54 ± 0.25 |
| QAHVQILYKL | 5.95 ± 0.054 |
| QARLLSYLGDLVLASSWKVL | -0.891 ± 0.64 |
| QCSIVWR | 6.61 ± 0.076 |
| QCYAMSSLMMLYLFFLWGCG | -1.05 ± 0.55 |
| QDGFRMYVLFDYNQCREFCS | 1.23 ± 0.26 |
| QDLVGGCQLSHHHCNLSCGF | inactive |
| QDNRYPLFVLSTLLSLIFLL | inactive |
| QEVRSF | 0.6 ± 0.66 |
| QFAHFKNLWVFVLSCRWLPT | -0.158 ± 0.35 |
| QFDTPNTT | -0.169 ± 0.54 |
| QFFMWTGGH | 2.84 ± 0.1 |

| Substance | amyloid nucleation score |
| --- | --- |
| QFHFWMQRMMFPLEFVIWVW | 1.33 ± 0.34 |
| QFILFCIPTPNQ | 4.93 ± 0.08 |
| QFRTIHAHYNFFG | 7.68 ± 0.048 |
| QGLSCEGILWLVEYSQTFFG | -1.27 ± 1.1 |
| QGVDNGDRGRGRNLWASMRR | 1.34 ± 0.39 |
| QGYLLFN | 0.467 ± 0.19 |
| QICHHIDYVFRCHDI | 0.585 ± 0.8 |
| QIFFWSSFN | inactive |
| QIHGVTFFSQRTGTCASEP | -0.875 ± 0.44 |
| QKACWNPGQRLLVTDLHYQP | 0.27 ± 0.64 |
| QLALLMFMQTFNSYS | 7.43 ± 0.059 |
| QLFAVQSLCRKRRQLRWLPT | 0.463 ± 0.64 |
| QLHIWVVIRYPLYLINKTVW | 0.436 ± 0.8 |
| QLTRTVIYCLLFSAFHFYIS | 2.39 ± 0.22 |
| QLVFYSNFVSKDVNVDLQWL | 5.75 ± 0.062 |
| QLVGSLGGAQGTAGRYRYTG | 0.658 ± 0.51 |
| QLYLTVTNGFVRCTTASDVL | 1.14 ± 0.47 |
| QMISLYAKQGVFPFGLSCSC | 2.02 ± 0.11 |
| QMLDTRSLGNDYNYNVYSLA | -1.41 ± 0.39 |
| QNCQFGMH | 0.88 ± 0.48 |
| QNFNILIGRGDVY | 1.6 ± 0.23 |
| QRDDVISRCVYHYFKVVPGA | -0.183 ± 0.55 |
| QRGFLRVPSLWCSFCLH | -0.176 ± 1.1 |
| QRGRGERMFITQCLVDRMCF | -0.117 ± 0.31 |
| QRMTNMSF | -1.27 ± 1 |

| Substance | amyloid nucleation score |
| --- | --- |
| QRQDDSVFHDVSHLGQGSSK | 9.066 ± 0.078 |
| QRVFDLKSGFGLNRDILVCL | inactive |
| QSAFSKF | inactive |
| QSAVICVGRCGNCHPPTEL | 2.87 ± 0.1 |
| QSLIDSVHVALHKLLRRYVK | -0.232 ± 0.65 |
| QSRSYFRRGVTSCLHPGWET | 0.452 ± 0.53 |
| QSTSQLRLYELSR | -0.206 ± 1.1 |
| QTGCSITFLKFGRSAVSTVK | 0.378 ± 0.27 |
| QTMVCTTISAPKSGSAWERS | 0.109 ± 0.37 |
| QVCRDDYEVDFLGCGCPRGH | -0.588 ± 0.44 |
| QVFRFSYKCPCHAVG | 1.75 ± 0.15 |
| QVGKQADFRVAWLRVIHVF | 0.292 ± 0.56 |
| QVIFI | inactive |
| QVLIIPLWKNGLRTIIRWL | 0.106 ± 1 |
| QVPGYIAQSKML | 0.407 ± 0.43 |
| QVSDVRDLNFWISVTHVEVG | 3.4 ± 0.12 |
| QWCLSNNVLWEMGVW | inactive |
| QWIAGVYV | 3.23 ± 0.048 |
| QYRFFVYKLRRQIIYV | -0.191 ± 1.1 |
| QYWQYWSWIGCVCLLCGWRF | 0.91 ± 0.26 |
| RAANLSLHSNGDTGGESVSD | inactive |
| RAKTNSVGDLQYGIHVPMKG | -0.043 ± 0.37 |
| RARFHFVKTCSTQRSMPHMG | 3.21 ± 0.073 |
| RAVEEYAVPS | 0.878 ± 0.35 |
| RAYCAYTLR | 5.94 ± 0.071 |

| Substance | amyloid nucleation score |
| --- | --- |
| RCEFFGVGMSREKNMGCSKC | 0.875 ± 0.47 |
| RCEFSACMCGVCGAYKCMRF | 5.3 ± 0.064 |
| RCFSTHVAQDQLFVY | inactive |
| RCKIRSLFSNLYPDSVFTLT | inactive |
| RCKYWNTKCTTIYRGRVSYL | -0.733 ± 0.29 |
| RCLTELTNETNYVGAG | 0.405 ± 0.3 |
| RCPGCDE | 1.26 ± 0.25 |
| RDNRSLTELLNRTMVHFVIM | inactive |
| RDVRQVQRWSYCWRARTRSA | 1.19 ± 0.25 |
| REAAVHRLIAWIGFRCRCQV | -0.317 ± 1.1 |
| RECFGGVQYRVRFSKFPYES | -0.663 ± 0.5 |
| REDGSPVGLLGGDHWVDFAQ | 1.38 ± 0.19 |
| REEYCSFTICWSLDALHDRG | 0.527 ± 0.65 |
| REFDRNFTPYPSQQELPIWW | 0.827 ± 0.39 |
| REFLMD | inactive |
| REGVQVIQTGLVEYKLG | -0.029 ± 0.79 |
| REIARGRMYLGSPGLVDIVA | -0.232 ± 0.76 |
| REQYPYINQHRP | 2.52 ± 0.14 |
| RERDNVMDIVGSAMRDCCQF | 0.282 ± 0.25 |
| RESTTRMSAGNVYRVTHKHS | 0.224 ± 0.4 |
| REWWYKKALPQCENTIGVGQ | 0.721 ± 0.47 |
| RFCWICCHVQFFYELHITHA | inactive |
| RFFYYVVTLDAFNTFHKHLG | -1.56 ± 1.1 |
| RFGNCGVTMTRSAGRFRAIS | -0.169 ± 0.29 |
| RFGVSVTGDTSRCSGCGGAH | 4.01 ± 0.089 |

| Substance | amyloid nucleation score |
| --- | --- |
| RFHRYTILLLLTPEWTEHAI | 0.52 ± 0.57 |
| RFIND | -0.703 ± 1 |
| RFKLEYHEEG | 2.81 ± 0.19 |
| RFNWFFRHV | 0.524 ± 0.81 |
| RFNYEP | 0.262 ± 0.46 |
| RFRFGAVNLV | 0.849 ± 0.49 |
| RFRHGNDYGSYYFCGLLGSM | 0.264 ± 0.46 |
| RFRLWIVCG | -0.253 ± 0.26 |
| RFTESYSL | -0.935 ± 0.48 |
| RGLAES | -0.2 ± 0.24 |
| RGNMESLWQNRKGRCSLNHG | inactive |
| RGRCFWLEFTFISWLSNDVA | inactive |
| RGRHGASMELESVDKRTVSR | 0.656 ± 0.34 |
| RGRLMCSYLILNFCRSG | 3.04 ± 0.12 |
| RGSGKCYRAGFMIAIVTHPL | 1.5 ± 0.41 |
| RGSRNNQVWGQSFFMPQWTA | -0.405 ± 0.41 |
| RGVFAMLTVSYGNS | 5.483 ± 0.043 |
| RGWLRFMEQNGTYSEYDVDL | 12.82 ± 0.022 |
| RGYVRLSHTGTTRHHP | inactive |
| RHLDSDPRIRKPHFGDPVNT | -0.144 ± 0.55 |
| RHLISSLRELHTTLNLHRPE | 0.101 ± 0.76 |
| RHLVIYRLVNCKSARLSRTL | inactive |
| RHQYETKYRPYRVIPLQRMV | 0.277 ± 0.46 |
| RHSLYVFY | 1.69 ± 0.33 |
| RHTSNTIIDELFLDSMGWHN | 9.016 ± 0.05 |

| Substance | amyloid nucleation score |
| --- | --- |
| RHVMSR | 0.419 ± 0.23 |
| RIFLYND | inactive |
| RIFQLSTSGN | 0.072 ± 1.1 |
| RIFRYNDTVLCVLLGTNVGD | -0.418 ± 1.1 |
| RIISCRN | 0.331 ± 0.43 |
| RILTVYVPV | 1.19 ± 0.39 |
| RILYLTTDGRKLM | inactive |
| RIMIEFWPRFSWSI | 0.744 ± 0.14 |
| RIMIIGKYVSRMVFGDSFWG | 6.002 ± 0.049 |
| RIPHHWMSVGLVIAPRLKSV | -0.365 ± 0.63 |
| RIVIFFFTCIYPIWIRNTWP | -1.18 ± 1.1 |
| RIVVYMSLCQCL | 8.609 ± 0.076 |
| RIWYY | inactive |
| RIYFVEFMESWWGVGSLKEV | 3.51 ± 0.094 |
| RIYLVAIYL | 3.49 ± 0.067 |
| RKCLGLRSYATTFRVDQHSC | 0.266 ± 0.3 |
| RKGSNDYPFWPAVVWHPLPA | 0.753 ± 0.4 |
| RKISMTN | -0.573 ± 0.3 |
| RKRVVSQEPCL | -0.996 ± 0.78 |
| RKVFLRLCLLVWLNG | -0.292 ± 0.3 |
| RKVLWKSDTSSLLNEWSIAH | -0.178 ± 0.49 |
| RKVPVR | inactive |
| RLELVTVVSVSMHDLRHRRR | 4.75 ± 0.071 |
| RLHKTSNITTWIAHPLHNR | -0.038 ± 0.65 |
| RLIYCVVGRCCNCSFYFTRM | 2.75 ± 0.09 |

| Substance | amyloid nucleation score |
| --- | --- |
| RLIYLCGSRGPNTEFVRVKR | 3.21 ± 0.055 |
| RLLNPRVSKVWICAHNARDL | 1.1 ± 0.24 |
| RLLTSHD | 4.12 ± 0.089 |
| RLMQSVMCRRDLLL | 0.883 ± 0.47 |
| RLNALLVWFVRVSMALVRES | -0.661 ± 1.1 |
| RLRKFESLLICDRISIIVRY | 0.621 ± 0.56 |
| RLSFNWSLKSYMLPLESSVV | -0.079 ± 0.55 |
| RLTVRWAYMSLLTVGQGGIM | 0.21 ± 1 |
| RLTVTGVALVFKGFAAEYGL | 5.81 ± 0.066 |
| RLVFVFITDG | 2.96 ± 0.054 |
| RLYCQRFPRFENITIWELLL | -1.71 ± 0.54 |
| RMGCLFCRESNWILSFYSVS | 5.87 ± 0.074 |
| RMLADGVTLVPCWALQL | 0.57 ± 0.43 |
| RMRLPPFPIDWSDAYLFWHS | 1.28 ± 0.38 |
| RMVKLDDNVKYYVKSVEGYE | 0.276 ± 0.6 |
| RMVLSGNLLQRNRNYPNQRM | 2.03 ± 0.079 |
| RMVSPSPMAQNKLGYATTLG | 0.02 ± 0.49 |
| RNAEA | -0.5 ± 0.63 |
| RNGVLAIGLY | -0.759 ± 0.63 |
| RNHFLLCFLRCNEEYAQVRG | 3.69 ± 0.059 |
| RNITVTIFCLTAHRA | 9.317 ± 0.054 |
| RNLTFYKTSPVGRC | 0.712 ± 0.4 |
| RNSIFNG | -0.796 ± 0.62 |
